Test results: patent US20220119784

How the values were obtained:
[1] = system: PDCD-1 megaTAL parent (Artificial Sequence); assay: cell_activity; settings: primary human T cells, mRNA electroporation, TIDE
[2] = system: PDCD-1 megaTAL thermostable variant (Artificial Sequence); assay: cell_activity; settings: nearly 80%; primary human T cells, mRNA electroporation, TIDE

PDCD-1 target site
activity [1]: < 20 % editing
activity [2]: 80 % editing
